According to publication PMC9933118 (Proceedings of the National Academy of Sciences of the …, 2023):
Positions count from the first letter of the chain named. Names may count otherwise. Each block holds one binder with its values, some of them ahead of it.

Legend:
GST-ZF456 = GST-ZF456 (Homo sapiens, UniProt Q9H165); assay: pull-down
ZF456 of BCL11B = ZF456 of BCL11B (Homo sapiens (assumed, as for BCL11A), UniProt Q9C0K0); assay: AlphaScreen or HTRF
Twin-Strep-tagged ZF456 = Twin-Strep-tagged ZF456 (Homo sapiens, UniProt Q9H165); assay: SPR
Twin-Strep-tagged ZF456, sequence (Q9H165 737-835): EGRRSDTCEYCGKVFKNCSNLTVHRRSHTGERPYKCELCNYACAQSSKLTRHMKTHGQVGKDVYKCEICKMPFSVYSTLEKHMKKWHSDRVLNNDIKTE

[1] = molecular target: BCL11A ZF456 (residues 737 to 835) (Homo sapiens, UniProt Q9H165, 15N-labelled in the NMR experiment)
BCL11A ZF456 (residues 737 to 835), sequence (Q9H165 737-835): as above

[2] = molecular target: biotinylated ZF456 protein (BCL11A) (Homo sapiens, UniProt Q9H165, biotin (site not stated)); assay: AlphaScreen or HTRF
biotinylated ZF456 protein (BCL11A), sequence (Q9H165 737-835): as above

GST-ZF456, sequence (Q9H165 737-835): as above
ZF456 of BCL11B, sequence (Q9C0K0 whole entry, looked up, tested part not stated): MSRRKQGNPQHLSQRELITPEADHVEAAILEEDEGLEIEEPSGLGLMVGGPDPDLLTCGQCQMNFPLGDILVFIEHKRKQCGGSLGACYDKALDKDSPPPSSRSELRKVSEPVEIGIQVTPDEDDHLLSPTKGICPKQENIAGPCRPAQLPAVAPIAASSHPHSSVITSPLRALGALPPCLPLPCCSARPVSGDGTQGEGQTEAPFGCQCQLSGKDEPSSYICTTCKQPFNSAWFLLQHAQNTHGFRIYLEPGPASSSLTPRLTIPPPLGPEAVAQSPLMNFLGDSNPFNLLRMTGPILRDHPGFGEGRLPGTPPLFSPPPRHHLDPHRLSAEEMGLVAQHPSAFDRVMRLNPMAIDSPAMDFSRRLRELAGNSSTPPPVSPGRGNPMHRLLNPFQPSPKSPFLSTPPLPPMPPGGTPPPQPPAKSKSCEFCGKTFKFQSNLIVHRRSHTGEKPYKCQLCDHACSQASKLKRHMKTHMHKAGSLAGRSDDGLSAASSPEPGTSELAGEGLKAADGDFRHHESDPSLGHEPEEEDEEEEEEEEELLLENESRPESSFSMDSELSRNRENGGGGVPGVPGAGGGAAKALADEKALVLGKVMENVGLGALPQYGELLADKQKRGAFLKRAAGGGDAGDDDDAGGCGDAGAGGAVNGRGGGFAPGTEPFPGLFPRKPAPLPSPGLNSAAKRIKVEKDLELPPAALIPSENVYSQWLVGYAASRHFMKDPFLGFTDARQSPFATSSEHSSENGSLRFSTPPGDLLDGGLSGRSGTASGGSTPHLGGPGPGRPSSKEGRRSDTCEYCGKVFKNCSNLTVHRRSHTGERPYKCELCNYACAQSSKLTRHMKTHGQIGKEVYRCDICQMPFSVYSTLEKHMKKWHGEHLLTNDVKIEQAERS

B3: Nb6101(M45D) (VHH)
VHH: RVQLVESGGGLVQAGGSLRLSCAASGFIFDSYAMGWYRQAPGKEDELVAAITSSGSSTYYADSVKGRFTISRDNAKNTVYLQMNSLKPEDTAVYYCAALDYVIDGYWGQGTQVTVSS
Kd (Twin-Strep-tagged ZF456): 157 ± 9 nM | fold improvement of binding affinity against Nb6101 (Twin-Strep-tagged ZF456): ~6 fold

B4: Nb5344 (VHH)
VHH: SGGGLVQAGDSLRLSCAASGSTFSGYAMGWYRQAPGKERELVAAITSSGASTYYADSVRGRFTISRDNAKNTVYLQMNSLKPEDTAVYYCAALDEGYLDYDSWGQGTQVTVSS
Kd [1]: 3420 ± 80 nM

B5: Nb5344(N74D) (VHH)
VHH: B4 VHH with N68D
Kd [1]: 1200 ± 50 nM

B6: Nb6101-14 (VHH)
VHH: B3 VHH with S25D, I28D, D30S, K43Y, S53A, S57Y, A61S, D100S, I103A, D104E
Kd [2]: 26.7 ± 0.7 nM

B9: Nb6101-19 (VHH)
VHH: RVQLVESGGGLVQAGGSLRLSCAADGFDFKSYAMGWYRQAPGREDELVAAITASGDYTYYADSVKGRFTISRDNAKNTVYLQMNSLKPDDTAVYYCAALSYVAEGYWGQGTQVTVSS
Kd [2]: 21.9 ± 0.4 nM

Now from value to binder:

binding result (GST-ZF456): binds
B1: Nb61 (VHH)
VHH: B3 VHH with R1Q, D45R

binding result (ZF456 of BCL11B): no binding
B2: Nb6101 (VHH)
VHH: B3 VHH with D45M

Kd [2]: 54.6 ± 0.9 nM
B7: Nb6101-22 (VHH)
VHH: B9 VHH with V2M, K30S, D56S, A61S

Kd [2]: 77.2 ± 0.5 nM
B8: Nb6101-20 (VHH)
VHH: B9 VHH with R43Y, D56S, A61S, D89E
